Reference: patent US20150203577A1 (Chugai, published 2015)
Changes are numbered by the printed parent chain.

T1: mouse FcγRIII extracellular domain, C-terminally His-tagged (mouse, UniProt P08508 31-215)
T1 construct: the whole entry is named; also called mFcγRIII; mFcgRIII
T1 chain: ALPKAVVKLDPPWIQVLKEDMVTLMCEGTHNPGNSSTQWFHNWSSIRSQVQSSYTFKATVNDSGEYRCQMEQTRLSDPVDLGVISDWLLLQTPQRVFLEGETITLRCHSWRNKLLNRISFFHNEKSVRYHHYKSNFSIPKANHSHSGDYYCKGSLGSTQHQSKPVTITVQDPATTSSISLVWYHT

T2: mouse FcγRII extracellular domain, C-terminally His-tagged (mouse, UniProt P08101 30-210)
T2 construct: the whole entry is named; also called mFcγRII; mFcgRII
T2 sequence: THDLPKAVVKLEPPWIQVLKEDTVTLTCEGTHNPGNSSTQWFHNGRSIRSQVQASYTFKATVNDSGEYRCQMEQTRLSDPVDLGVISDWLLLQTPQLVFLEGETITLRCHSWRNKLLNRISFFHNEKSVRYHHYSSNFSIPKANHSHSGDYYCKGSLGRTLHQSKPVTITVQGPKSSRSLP

B1: H237-MB443/MRAL-k0 (antibody, mouse IgG1, kappa)
heavy: QVQLQESGPGLVKPSETLSLTCAVSGHSISHDHAWSWVRQPPGEGLEWIGFISYSGITNYNPSLQGRVTISRDNSKNTLYLQMNSLRAEDTAVYYCARSLARTTAMDYWGEGTLVTVSSAKTTPPSVYPLAPGSAAQTNSMVTLGCLVKGYFPEPVTVTWNSGSLSSGVHTFPAVLQSDLYTLSSSVTVPSSTWPSETVTCNVAHPASSTKVDKKIVPRDCGCKPCICETYEVEDVFIFPPKPKDVLTITLTPKVTCVVVDISKDDPEVQFSWFVDDVEVHTAQTQPREEQENSTFRSVSELPIMHQDWLNGKEFKCRVNSAAFPAPIEKTISKTKGRPKAPQVYTIPPPKEQMAKDKVSLTCMITDFFPEDITVEWQWNGQPAENYKNTQPIMDTDGSYFVYSKLNVQKSNWEAGNTFTCSVLHEGLHNHHTEKSLSHSPGK
light: not shown
notes: copies: 2 + 2
B2: H237-MB453/MRAL-k0 (antibody, mouse IgG1, kappa)
heavy: B1 heavy with E292F, P327D
light: not shown
notes: copies: 2 + 2
B3: H237-MB454/MRAL-k0 (antibody, mouse IgG1, kappa)
heavy: B1 heavy with E292F, P327F
light: not shown
notes: copies: 2 + 2
B4: H237-MB467/MRAL-k0 (antibody, mouse IgG1, kappa)
heavy: B1 heavy with E292F, A323G
light: not shown
notes: copies: 2 + 2
B5: H237-MB457/MRAL-k0 (antibody, mouse IgG1, kappa)
heavy: B1 heavy with E292F, E329Y
light: not shown
notes: copies: 2 + 2
B6: H237-MB465/MRAL-k0 (antibody, mouse IgG1, kappa)
heavy: B1 heavy with Q291L, E292F
light: not shown
notes: copies: 2 + 2
B7: H237-MB451/MRAL-k0 (antibody, mouse IgG1, kappa)
heavy: B1 heavy with E292F, A326G
light: not shown
notes: copies: 2 + 2
B8: H237-MB447/MRAL-k0 (antibody, mouse IgG1, kappa)
heavy: B1 heavy with E292F, S294M
light: not shown
notes: copies: 2 + 2
B9: H237-MB458/MRAL-k0 (antibody, mouse IgG1, kappa)
heavy: B1 heavy with E292F, E329V
light: not shown
notes: copies: 2 + 2
B10: H237-MB462/MRAL-k0 (antibody, mouse IgG1, kappa)
heavy: B1 heavy with E292F, S333K
light: not shown
notes: copies: 2 + 2
B11: H237-MB455/MRAL-k0 (antibody)
heavy: B1 heavy with E292F, P327Y
light: not shown
notes: copies: 2 + 2
B12: H237-MB463/MRAL-k0 (antibody, mouse IgG1, kappa)
heavy: B1 heavy with E292F, S333W
light: not shown
notes: copies: 2 + 2
B13: H237-MB450/MRAL-k0 (antibody, mouse IgG1, kappa)
heavy: B1 heavy with E292F, N320M
light: not shown
notes: copies: 2 + 2
B14: H237-MB456/MRAL-k0 (antibody, mouse IgG1, kappa)
heavy: B1 heavy with E292F, E329N
light: not shown
notes: copies: 2 + 2
B15: H237-MB466/MRAL-k0 (antibody, mouse IgG1, kappa)
heavy: B1 heavy with E292F, A322D
light: not shown
notes: copies: 2 + 2
B16: H237-MB464/MRAL-k0 (antibody, mouse IgG1, kappa)
heavy: B1 heavy with S263A, E292F
light: not shown
notes: copies: 2 + 2
B17: H237-MB461/MRAL-k0 (antibody, mouse IgG1, kappa)
heavy: B1 heavy with E292F, S333I
light: not shown
notes: copies: 2 + 2
B18: H237-MB449/MRAL-k0 (antibody, mouse IgG1, kappa)
heavy: B1 heavy with E292F, N320L
light: not shown
notes: copies: 2 + 2
B19: H237-MB444/MRAL-k0 (antibody, mouse IgG1, kappa)
heavy: B1 heavy with E292N
light: not shown
notes: copies: 2 + 2
B20: H237-MB459/MRAL-k0 (antibody, mouse IgG1, kappa)
heavy: B1 heavy with E292F, T331N
light: not shown
notes: copies: 2 + 2
B21: H237-MB445/MRAL-k0 (antibody, mouse IgG1, kappa)
heavy: B1 heavy with E292T
light: not shown
notes: copies: 2 + 2
B22: H237-MB452/MRAL-k0 (antibody, mouse IgG1, kappa)
heavy: B1 heavy with E292F, A326Q
light: not shown
notes: copies: 2 + 2
B23: H237-MB446/MRAL-k0 (antibody, mouse IgG1, kappa)
heavy: B1 heavy with E292F, S294L
light: not shown
notes: copies: 2 + 2
B24: H237-MB460/MRAL-k0 (antibody, mouse IgG1, kappa)
heavy: B1 heavy with E292F, T331Y
light: not shown
notes: copies: 2 + 2
B25: H237-MB448/MRAL-k0 (antibody, mouse IgG1, kappa)
heavy: B1 heavy with E292F, N320D
light: not shown
notes: copies: 2 + 2

Biological target: T1, mouse FcγRIII extracellular domain, …
Assay: SPR Biacore T200, KD ratio
Text: (§1) The antibody H chain variable region used was the variable region H237 (SEQ ID NO: 1) of the H chain VH3-IgG1 of the anti-IL-6 receptor antibody Fv4-IgG1 described in WO2009/125825. The antibody L chain commonly used was the L chain MRAL-k0 (SEQ ID NO: 2) of the anti-IL-6 receptor antibody tocilizumab. […] The resulting variant groups were designated as MB397 variants and MB390 variants, respectively. These variants were expressed and purified by the method of Reference Example 1 and evaluated for their binding to mFcγRII and mFcγRIII by the method of Reference Example 2 using Biacore T200.
(§2) Each altered antibody was analyzed for its interaction with each Fcγ receptor prepared above using Biacore T100 (GE Healthcare Japan Corp.), Biacore T200 (GE Healthcare Japan Corp.), Biacore A100, or Biacore 4000. The running buffer used was HBS-EP+ (GE Healthcare Japan Corp.). The assay temperature was set to 25° C. The sensor chips used were chips prepared by immobilizing Protein L (ACTIGEN or BioVision) onto Series S Sensor Chip CM5 (GE Healthcare Japan Corp.) or Series S Sensor Chip CM4 (GE Healthcare Japan Corp.) by the amine coupling method.
(§3) In order to calculate the KD value of each altered antibody for FcγR, kinetic analysis was conducted according to the following method: first, the antibody of interest was captured onto any of these chips and allowed to interact with mFcγR diluted with a running buffer. For the obtained sensorgram, the assay results were globally fit into the 1:1 Langmuir binding model using Biacore Evaluation Software to calculate an association rate constant ka (L/mol/s) and a dissociation rate constant kd (1/s). From these values, the dissociation constant KD (mol/L) was calculated.

| relative mFcγRIII-binding activity (MB397 = 1) [fold] | relative mFcγRIII-binding activity (mIgG1 = 1) [fold] | Binder |
| --- | --- | --- |
| 0.79 | 15.3 | B1 |
| 0.49 | 9.5 | B2 |
| 1.04 | 20 | B3 |
| 0.99 | 19.2 | B4 |
| 0.7 | 13.6 | B5 |
| 0.77 | 15 | B6 |
| 0.5 | 9.7 | B7 |
| 1.63 | 31.4 | B8 |
| 0.81 | 15.7 | B9 |
| 0.78 | 15.1 | B10 |
| 1.38 | 26.6 | B11 |
| 1.12 | 21.6 | B12 |
| 1.18 | 22.7 | B13 |
| 0.23 | 4.5 | B14 |
| 1.66 | 32 | B15 |
| 0.39 | 7.6 | B16 |
| 0.97 | 18.8 | B17 |
| 0.56 | 10.7 | B18 |
| 0.67 | 12.9 | B19 |
| 1.06 | 20.5 | B20 |
| 0.68 | 13.2 | B21 |
| 0.23 | 4.4 | B22 |
| 3.3 | 63.7 | B23 |
| 1.1 | 21.2 | B24 |
| 1.3 | 25.1 | B25 |

What follows are binders tested against T2, mouse FcγRII extracellular domain, … (assay: SPR Biacore T200, KD ratio).
Text: as §1, §2, §3

| relative mFcγRII-binding activity (MB397 = 1) [fold] | relative mFcγRII-binding activity (mIgG1 = 1) [fold] | Binder |
| --- | --- | --- |
| 0.44 | 243 | B1 |
| 0.21 | 118 | B2 |
| 0.53 | 295 | B3 |
| 0.49 | 271 | B4 |
| 0.36 | 202 | B5 |
| 0.35 | 192 | B6 |
| 0.11 | 60.1 | B7 |
| 1.1 | 608 | B8 |
| 0.46 | 253 | B9 |
| 0.39 | 214 | B10 |
| 0.6 | 332 | B11 |
| 0.55 | 307 | B12 |
| 0.68 | 377 | B13 |
| 0.12 | 67.9 | B14 |
| 0.81 | 449 | B15 |
| 0.16 | 88.5 | B16 |
| 0.45 | 247 | B17 |
| 0.28 | 154 | B18 |
| 0.42 | 231 | B19 |
| 0.51 | 285 | B20 |
| 0.4 | 220 | B21 |
| 0.08 | 46.9 | B22 |
| 2.45 | 1360 | B23 |
| 0.6 | 332 | B24 |
| 0.95 | 525 | B25 |
